The numbers were not newly measured in patent US20210079079A1, “SYSTEMS AND METHODS FOR LOCAL MODULATION OF WNT SIGNALING” (Ortheus, Inc., priority 2018, published 2021), which cites them from elsewhere.

For the data set the following is noted: in vivo; cited from earlier work.

Regarding “DKK1: a secreted protein that inhibits canonical Wnt signaling”, the elimination half-life entry is reported as “less than 30 minutes”.
